Measurements taken from PMC12477443, “Structural basis for mTORC1 regulation by the CASTOR1–GATOR2 complex” (Nature Structural & Molecular Biology, 2025).

B3: MIOS (subunit of the recombinant GATOR2 complex) (natural protein, human)
chain: MSGTKPDILWAPHHVDRFVVCDSELSLYHVESTVNSELKAGSLRLSEDSAATLLSINSDTPYMKCVAWYLNYDPECLLAVGQANGRVVLTSLGQDHNSKFKDLIGKEFVPKHARQCNTLAWNPLDSNWLAAGLDKHRADFSVLIWDICSKYTPDIVPMEKVKLSAGETETTLLVTKPLYELGQNDACLSLCWLPRDQKLLLAGMHRNLAIFDLRNTSQKMFVNTKAVQGVTVDPYFHDRVASFYEGQVAIWDLRKFEKPVLTLTEQPKPLTKVAWCPTRTGLLATLTRDSNIIRLYDMQHTPTPIGDETEPTIIERSVQPCDNYIASFAWHPTSQNRMIVVTPNRTMSDFTVFERISLAWSPITSLMWACGRHLYECTEEENDNSLEKDIATKMRLRALSRYGLDTEQVWRNHILAGNEDPQLKSLWYTLHFMKQYTEDMDQKSPGNKGSLVYAGIKSIVKSSLGMVESSRHNWSGLDKQSDIQNLNEERILALQLCGWIKKGTDVDVGPFLNSLVQEGEWERAAAVALFNLDIRRAIQILNEGASSEKGDLNLNVVAMALSGYTDEKNSLWREMCSTLRLQLNNPYLCVMFAFLTSETGSYDGVLYENKVAVRDRVAFACKFLSDTQLNRYIEKLTNEMKEAGNLEGILLTGLTKDGVDLMESYVDRTGDVQTASYCMLQGSPLDVLKDERVQYWIENYRNLLDAWRFWHKRAEFDIHRSKLDPSSKPLAQVFVSCNFCGKSISYSCSAVPHQGRGFSQYGVSGSPTKSKVTSCPGCRKPLPRCALCLINMGTPVSSCPGGTKSDEKVDLSKDKKLAQFNNWFTWCHNCRHGGHAGHMLSWFRDHAECPVSACTCKCMQLDTTGNLVPAETVQP
notes: MIOS, subunit of human GATOR2; codon-optimized DNA in pCAG; The MIOS chain of m1, for the pairs of subunits that touch in the structure

Legend:
[1] = target: the molecule itself; assay: cryo-EM structure; purified GATOR2 at 0.45 mg/ml with a threefold molar excess of CASTOR1^apo, 45 min on ice, no arginine; Titan Krios
[2] = target: B3; assay: as above; conditions: both partners purified
[3] = target: T1, WDR24 (subunit of the recombinant GATOR2 complex) (human, UniProt Q96S15 1-790); assay: cryo-EM structure; purified GATOR2 at 0.45 mg/ml with threefold molar excess of CASTOR1^apo, twofold of SESN2^apo and threefold of GATOR1, 45 min on ice; Talos Arctica, 7.77 Å map; conditions: both partners purified
T1 construct: WDR24, subunit of human GATOR2; codon-optimized DNA in pCAG; The WDR24 chain of m1
T1 sequence: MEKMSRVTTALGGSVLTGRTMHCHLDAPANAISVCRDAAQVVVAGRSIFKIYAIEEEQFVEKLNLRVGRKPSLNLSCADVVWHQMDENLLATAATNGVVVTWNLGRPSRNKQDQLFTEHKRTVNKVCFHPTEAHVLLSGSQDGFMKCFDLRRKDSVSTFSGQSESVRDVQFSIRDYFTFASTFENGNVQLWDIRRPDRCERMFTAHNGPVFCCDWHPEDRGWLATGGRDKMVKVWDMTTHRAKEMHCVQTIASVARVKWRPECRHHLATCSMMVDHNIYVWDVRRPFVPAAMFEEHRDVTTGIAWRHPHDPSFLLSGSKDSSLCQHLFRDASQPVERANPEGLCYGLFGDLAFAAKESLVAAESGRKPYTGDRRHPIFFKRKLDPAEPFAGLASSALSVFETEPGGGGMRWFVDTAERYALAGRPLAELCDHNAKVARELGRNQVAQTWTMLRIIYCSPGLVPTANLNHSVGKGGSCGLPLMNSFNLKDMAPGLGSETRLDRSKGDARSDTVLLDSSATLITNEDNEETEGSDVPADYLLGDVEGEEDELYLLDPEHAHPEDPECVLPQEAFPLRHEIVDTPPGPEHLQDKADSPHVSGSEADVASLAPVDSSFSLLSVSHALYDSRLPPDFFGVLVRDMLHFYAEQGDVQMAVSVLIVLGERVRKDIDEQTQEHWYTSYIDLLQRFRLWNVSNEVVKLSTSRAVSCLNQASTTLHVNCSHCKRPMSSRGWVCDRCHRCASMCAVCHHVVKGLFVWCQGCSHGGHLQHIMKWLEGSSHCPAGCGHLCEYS

[4] = target: T2, WDR59 (subunit of the recombinant GATOR2 complex) (human, UniProt Q6PJI9 1-974); assay: cryo-EM structure; purified GATOR2 at 0.45 mg/ml with a threefold molar excess of CASTOR1^apo, 45 min on ice, no arginine; Titan Krios; conditions: both partners purified
T2 construct: WDR59, subunit of human GATOR2; codon-optimized DNA in pCAG; The WDR59 chain of m1
T2 sequence: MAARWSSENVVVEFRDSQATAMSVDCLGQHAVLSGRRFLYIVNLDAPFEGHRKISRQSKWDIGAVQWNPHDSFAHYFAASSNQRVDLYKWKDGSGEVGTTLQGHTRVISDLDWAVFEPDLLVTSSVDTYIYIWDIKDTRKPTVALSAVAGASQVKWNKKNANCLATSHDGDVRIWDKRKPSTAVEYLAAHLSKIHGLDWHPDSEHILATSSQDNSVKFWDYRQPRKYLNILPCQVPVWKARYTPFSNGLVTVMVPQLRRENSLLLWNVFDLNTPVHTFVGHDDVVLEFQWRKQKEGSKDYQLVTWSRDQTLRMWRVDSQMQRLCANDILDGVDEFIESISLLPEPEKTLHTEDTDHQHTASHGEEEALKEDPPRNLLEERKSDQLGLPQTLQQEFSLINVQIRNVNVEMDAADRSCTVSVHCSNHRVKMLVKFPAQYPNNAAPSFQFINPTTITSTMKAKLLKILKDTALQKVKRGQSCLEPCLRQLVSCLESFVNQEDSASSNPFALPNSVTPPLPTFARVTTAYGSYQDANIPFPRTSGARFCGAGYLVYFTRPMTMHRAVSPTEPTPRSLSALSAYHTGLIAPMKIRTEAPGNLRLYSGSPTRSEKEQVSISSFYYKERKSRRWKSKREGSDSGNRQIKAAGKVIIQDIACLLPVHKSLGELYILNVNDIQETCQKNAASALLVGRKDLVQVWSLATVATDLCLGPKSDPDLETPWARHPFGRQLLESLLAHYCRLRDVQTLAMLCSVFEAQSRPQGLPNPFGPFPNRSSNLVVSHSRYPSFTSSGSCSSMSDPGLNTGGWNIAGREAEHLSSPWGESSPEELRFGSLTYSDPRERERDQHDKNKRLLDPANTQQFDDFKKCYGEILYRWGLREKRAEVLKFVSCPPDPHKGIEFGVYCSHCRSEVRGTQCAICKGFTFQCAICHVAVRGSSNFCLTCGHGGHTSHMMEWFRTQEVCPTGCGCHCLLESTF

B1: CASTOR1(S111A/D304A), apo-locked mutant (natural protein)
chain: MELHILEHRVRVLSVARPGLWLYTHPLIKLLFLPRRSRCKFFSLTETPEDYTLMVDEEGFKELPPSEFLQVAEATWLVLNVSSHSGAAVQAAGVTKIARSVIAPLAEHHVAVLMLSTYQTDFILVREQDLSVVIHTLAQEFDIYREVGGEPVPVTRDDSSNGFPRTQHGPSPTVHPIQSPQNRFCVLTLDPETLPAIATTLIDVLFYSHSTPKEAASSSPEPSSITFFAFSLIEGYISIVMDAETQKKFPSDLLLTSSSGELWRMVRIGGQPLGFDECGIVAQIAGPLAAADISAYYISTFNFAHALVPEDGIGSVIEVLQRRQEGLAS
notes: CASTOR1, arginine sensor; codon-optimized DNA in pET-28a+; Homodimer in the structure; also called CASTOR1^apo; 6×His–CASTOR1^apo; source: E. coli BL21(DE3), purified (Ni-NTA, Superdex 200 gel filtration)
stoichiometry N [1]: 2
binding result [2]: binds

B2: SESN2(E451Q/R390A/W444E), apo-locked mutant (natural protein, UniProt P58004 1-480, looked up)
chain: MIVADSECRAELKDYLRFAPGGVGDSGPGEEQRESRARRGPRGPSAFIPVEEVLREGAESLEQHLGLEALMSSGRVDNLAVVMGLHPDYFTSFWRLHYLLLHTDGPLASSWRHYIAIMAAARHQCSYLVGSHMAEFLQTGGDPEWLLGLHRAPEKLRKLSEINKLLAHRPWLITKEHIQALLKTGEHTWSLAELIQALVLLTHCHSLSSFVFGCGILPEGDADGSPAPQAPTPPSEQSSPPSRDPLNNSGGFESARDVEALMERMQQLQESLLRDEGTSQEEMESRFELEKSESLLVTPSADILEPSPHPDMLCFVEDPTFGYEDFTRRGAQAPPTFRAQDYTWEDHGYSLIQRLYPEGGQLLDEKFQAAYSLTYNTIAMHSGVDTSVLARAIWNYIHCVFGIRYDDYDYGEVNQLLERNLKVYIKTVACYPEKTTRRMYNLFERHFRHSQKVHVNLLLLEARMQAALLYALRAITRYMT
notes: sestrin2 (SESN2), leucine sensor; codon-optimized DNA in pET-28a+; also called SESN2^apo; 6×His–SESN2^apo; source: E. coli BL21(DE3), purified (Ni-NTA, SP cation-exchange flowthrough, Superdex 200 gel filtration)
binding result [3]: binds

B3
binding result [1]: binds
binding result [4]: binds
